Reference: patent US20210040206A1

Tests used:
[1] = molecular target: human SIRPa expressed by blood monocytes of heterozygous V1/V2 donors (cells carry both SIRPa v1 and SIRPa v2); assay: flow cytometry competition, recombinant CD47-Fc on heterozygous V1/V2 monocytes (n=5)
[2] = molecular target: human SIRPa expressed by blood monocytes of heterozygous V1/V2 donors (cells carry both SIRPa v1 and SIRPa v2); assay: FACS competition on human monocytes of V1/V2 donors; blocked ligand: biotinylated CD47Fc, revealed with streptavidin-PE
[3] = molecular target: SIRPa V8 (SNP15 + 16) recombinant protein, extracellular domain fused with mouse Fc from IgG2a (human; mouse) (UniProt P78324); assay: ELISA on immobilised SIRPa variant-mouse Fc, donkey anti-human IgG peroxidase, TMB 450 nm; given as ED50
[4] = molecular target: SIRPa V6 (SNP12 + 13) recombinant protein, extracellular domain fused with mouse Fc from IgG2a (human; mouse) (UniProt P78324); assay: as above
SIRPa V6 (SNP12 + 13) recombinant protein, extracellular domain fused with mouse Fc from IgG2a (human; mouse), sequence (P78324 31-373 N100E limits assumed): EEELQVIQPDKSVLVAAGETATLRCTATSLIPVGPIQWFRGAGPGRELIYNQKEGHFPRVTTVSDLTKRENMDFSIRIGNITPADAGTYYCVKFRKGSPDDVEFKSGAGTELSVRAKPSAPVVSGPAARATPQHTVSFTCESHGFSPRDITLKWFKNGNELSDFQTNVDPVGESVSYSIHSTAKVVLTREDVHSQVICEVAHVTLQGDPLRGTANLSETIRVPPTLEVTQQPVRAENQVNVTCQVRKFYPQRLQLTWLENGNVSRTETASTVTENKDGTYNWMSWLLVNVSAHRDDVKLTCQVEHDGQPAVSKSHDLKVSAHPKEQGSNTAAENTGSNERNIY

SIRPv2 (human;mouse) = SIRPv2 (human;mouse) (UniProt P78324); assay: as above
SIRPv2 (human;mouse), sequence (P78324 31-373): as the sequence (P78324 31-373 N100E limits assumed) above, with E70N counted along it

[5] = molecular target: SIRPa V3 (SNP1 + 2 + 3 + 4 + 5 + 6) recombinant protein, extracellular domain fused with mouse Fc from IgG2a (human; mouse) (UniProt P78324); assay: as above
SIRPa V3 (SNP1 + 2 + 3 + 4 + 5 + 6) recombinant protein, extracellular domain fused with mouse Fc from IgG2a (human; mouse), sequence (P78324 other isoform, or with tags, fused parts or gaps limits assumed): as the sequence (P78324 31-373 N100E limits assumed) above, with L14S, T20S, T22I, R24H, A27V, E70N counted along it

[6] = molecular target: SIRPa V7 (SNP14 + ?) recombinant protein, extracellular domain fused with mouse Fc from IgG2a (human; mouse) (UniProt P78324); assay: as above
SIRPa V7 (SNP14 + ?) recombinant protein, extracellular domain fused with mouse Fc from IgG2a (human; mouse), sequence (P78324 31-373 R107S/G109S limits assumed): as the sequence (P78324 31-373 N100E limits assumed) above, with E70N, R77S, G79S counted along it

[7] = molecular target: SIRPa V1 recombinant protein (extracellular domain fused with mouse Fc from IgG2a) (human; mouse) (UniProt P78324); assay: as above
SIRPa V1 recombinant protein (extracellular domain fused with mouse Fc from IgG2a) (human; mouse), sequence (P78324 31-373 limits assumed): as the sequence (P78324 31-373 N100E limits assumed) above, with E70N counted along it

[8] = molecular target: SIRPa V4 (SNP8) recombinant protein, extracellular domain fused with mouse Fc from IgG2a (human; mouse) (UniProt P78324); assay: as above
SIRPa V4 (SNP8) recombinant protein, extracellular domain fused with mouse Fc from IgG2a (human; mouse), sequence (P78324 31-373 G75A limits assumed): as the sequence (P78324 31-373 N100E limits assumed) above, with G45A, E70N counted along it

[9] = molecular target: SIRPa V5 (SNP9 + 10 + 11) recombinant protein, extracellular domain fused with mouse Fc from IgG2a (human; mouse) (UniProt P78324); assay: as above
SIRPa V5 (SNP9 + 10 + 11) recombinant protein, extracellular domain fused with mouse Fc from IgG2a (human; mouse), sequence (P78324 31-373 D95E/L96S limits assumed): as the sequence (P78324 31-373 N100E limits assumed) above, with D65E, L66S, E70N counted along it

[10] = molecular target: SIRPa v2 (antigen of the ELISA of FIG. 9B) (human) (UniProt P78324); assay: ELISA against SIRPa v2; given as ED50
SIRPa v2 (antigen of the ELISA of FIG. 9B) (human), sequence (P78324 other isoform, or with tags, fused parts or gaps limits assumed): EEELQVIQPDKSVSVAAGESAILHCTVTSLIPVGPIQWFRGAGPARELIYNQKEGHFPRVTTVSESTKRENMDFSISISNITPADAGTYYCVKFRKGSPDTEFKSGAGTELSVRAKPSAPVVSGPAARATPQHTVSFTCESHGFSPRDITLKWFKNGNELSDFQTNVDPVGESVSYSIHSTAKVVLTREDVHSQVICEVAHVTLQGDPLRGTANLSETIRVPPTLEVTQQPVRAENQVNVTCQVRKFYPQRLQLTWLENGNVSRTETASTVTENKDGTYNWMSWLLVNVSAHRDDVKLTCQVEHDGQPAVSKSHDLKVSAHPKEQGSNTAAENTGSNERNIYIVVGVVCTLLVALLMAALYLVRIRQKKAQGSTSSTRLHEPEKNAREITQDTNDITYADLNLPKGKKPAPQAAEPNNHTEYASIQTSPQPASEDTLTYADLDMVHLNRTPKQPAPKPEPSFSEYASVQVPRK

B1: in-house anti-human SIRPa v1 antibody (antibody, human IgG4, V domains shown)
VH: EVQLVQSGAEVKKPGESLRISCKASGYSFTSYWVHWVRQMPGKGLEWMGNIDPSDSDTHYSPSFQGHVTLSVDKSISTAYLQLSSLKASDTAMYYCVRGGTGTLAYFAYWGQGTLVTVSS
VL: DVVMTQSPLSLPVTLGQPASISCRSSQSLVHSYGNTYLYWFQQRPGQSPRLLIYRVSNRFSGVPDRFSGSGSGTDFTLKISRVEAEDVGVYYCFQGTHVPYTFGGGTKVEIK
For B1, the reduction of CD47-Fc binding [1] was 50% and the IC50 (read off the curve) [2] was 100 ng/mL.

B2: Kwar antibody (antibody, from a related filing, V domains shown)
VH: EVQLQQSGAELVKPGASVKLSCTASGFNIKDYYIHWVQQRTEQGLEWIGRIDPEDGETKYAPKFQDKATITADTSSNTAYLHLSSLTSEDTAVYYCARWGAYWGQGTLVTVSS
VL: QIVLTQSPAIMSASPGEKVTLTCSASSSVSSSYLYWYQQKPGSSPKLWIYSTSNLASGVPARFSGSGSGTSYSLTISSMEAEDAASYFCHQWSSYPRTFGAGTKLELK
B2 showed an EC50 [3] of 0.93 ng/mL, an EC50 [4] of 0.75 ng/mL and an EC50 (SIRPv2 (human;mouse)) of 0.77 ng/mL. For the same binder, the EC50 [5] was 0.77 ng/mL, the EC50 [6] was 0.6 ng/mL and the EC50 [7] was 0.77 ng/mL. The EC50 [8] was 0.74 ng/mL and the EC50 [9] was 0.78 ng/mL.

B3: chimeric 18D5 antibody (antibody, from a related filing, V domains shown)
VH: QVQLQQPGAELVRPGSSVKLSCKASGYTFTSYWVHWVKQRPIQGLEWIGNIDPSDSDTHYNQKFKDKASLTVDKSSSTAYMQLSSLTFEDSAVYYCVRGGTGTMAWFAYWGQGTLVTVSA
VL: DVVMTQTPLSLPVSLGDQASISCRSSQSLVHSYGNTYLYWYLQKPGQSPKLLIYRVSNRFSGVPDRFSGSGSGTDFTLKISRVEAEDLGVYFCFQGTHVPYTFGSGTKLEIKR
In the case of B3, the EC50 [10] is reported as 5720 ng/mL.
